In patent US20190010233A1 (JIANGSU HYAMAB PHARMACEUTICAL, published 2019):

B1: chimeric anti-PD-L1 antibody 73G11B3 (antibody, V domains shown)
VH: EVQLVESGGGLVQPGGSLRLSCVVSGFTFSSYWMSWVRQTPGKGLEWVANIKQDGSEKYYVDSVKGRLTISRDNAKNSLYLQMNSLRAEDTAVYYCVRDRAVPGTGALDIWGQGTMVTVSS
VL: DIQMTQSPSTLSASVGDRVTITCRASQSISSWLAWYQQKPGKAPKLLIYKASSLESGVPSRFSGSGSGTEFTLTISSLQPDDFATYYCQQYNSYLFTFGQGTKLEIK
notes: Purified from hybridoma of Harbour H2L2 mice: human variable regions, rat constant regions
B2: chimeric anti-PD-L1 antibody 127D2F3 (antibody, V domains shown)
VH: EVQLVESGGGLVQPGGSLRLSCVASGFTFSSYWMSWVRQAPGKGLEWVANIKQDGSEKYYVDSVKGRLTISRDNAKNSLYLQMKSLRAEDTAVYYCARDPIYSSYFDYWGQGILVTVSS
VL: DIQMTQSPSSLSASVGDRVTITCRASQSISNYLNWYQQKPGKAPKLLIYAASSLQSGVPSRFSGSGSGTDFTLTISSLQPEDFAAYYCQQSYGIPFTFGPGTKVDIK
notes: as for B1

Molecular target: T1, human PD-L1^ECD-hFc protein (human, UniProt Q9NZQ7 19-239, biotinylated in the PD-1 binding ELISA (Table 3) and in the Octet assay (Table 12))
T1 construct: The plain and the biotinylated protein are kept as one molecule; also called PD-L1-hFc; Immunogen A; not shown: human IgG Fc fragment (hFc)
T1 sequence (Q9NZQ7 19-239): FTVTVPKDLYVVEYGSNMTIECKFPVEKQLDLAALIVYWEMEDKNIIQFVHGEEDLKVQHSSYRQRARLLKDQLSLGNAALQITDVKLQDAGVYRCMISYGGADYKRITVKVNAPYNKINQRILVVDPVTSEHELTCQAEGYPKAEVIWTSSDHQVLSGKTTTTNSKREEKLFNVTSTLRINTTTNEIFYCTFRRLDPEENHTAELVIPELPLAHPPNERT
Test: ELISA receptor-ligand blocking assay: PD-L1^ECD-hFc coated on the plate, antibody titrated, blocked ligand biotinylated B7.1^ECD, HRP-streptavidin, inhibition rate (%)
Protocol: Purified PD-L1^ECD-hFc (Example 2) was diluted with PBS to a final concentration of 1.0 μg/mL, and 100 μL diluted PD-L1^ECD-hFc were added to each well of a 96-well plate that was then sealed with plastic film and incubated at 4° C. overnight. The plate was washed twice with wash buffer (PBS+0.01% (v/v) Tween 20) and incubated with blocking buffer (PBS+[…]) at room temperature for 2 hours. The blocking buffer was aspirated, and 50 μL purified anti-PD-L1 antibodies from Example 2 were added to each well of 96-well plate. […] The plate was washed three times with wash buffer (PBS+0.01% (v/v) Tween 20). 100 μL HRP-conjugated streptavidin (Sigma) were then added to each well and incubated at 37° C. for 2 hours. The plate was then washed three times with wash buffer, and 100 μL TMB substrate were added to each well. After 30 minutes of incubation at room temperature, the reaction was stopped by adding 100 μL stop solution (0.1N HCl).

Binder | IC50 (read off the curve)
B1 | ~0.5 nM
B2 | ~0.4 nM
